Patent US20220227882A1 (TRUSTEES OF TUFTS COLLEGE, published 2022)
Numbering of substitutions follows the chain as printed. One block for each binder: values may come before it.

Key:
E444A = biological target: T1, E444A (Homo sapiens, UniProt P78325); assay: high-throughput flow cytometry, HEK293 cells with mutant ADAM8, high stringency; range in parentheses; closed box
T1 construct: expressed on HEK293 cells; also called human ADAM8 point mutant E444A
T1 sequence (ADAM8, looked up): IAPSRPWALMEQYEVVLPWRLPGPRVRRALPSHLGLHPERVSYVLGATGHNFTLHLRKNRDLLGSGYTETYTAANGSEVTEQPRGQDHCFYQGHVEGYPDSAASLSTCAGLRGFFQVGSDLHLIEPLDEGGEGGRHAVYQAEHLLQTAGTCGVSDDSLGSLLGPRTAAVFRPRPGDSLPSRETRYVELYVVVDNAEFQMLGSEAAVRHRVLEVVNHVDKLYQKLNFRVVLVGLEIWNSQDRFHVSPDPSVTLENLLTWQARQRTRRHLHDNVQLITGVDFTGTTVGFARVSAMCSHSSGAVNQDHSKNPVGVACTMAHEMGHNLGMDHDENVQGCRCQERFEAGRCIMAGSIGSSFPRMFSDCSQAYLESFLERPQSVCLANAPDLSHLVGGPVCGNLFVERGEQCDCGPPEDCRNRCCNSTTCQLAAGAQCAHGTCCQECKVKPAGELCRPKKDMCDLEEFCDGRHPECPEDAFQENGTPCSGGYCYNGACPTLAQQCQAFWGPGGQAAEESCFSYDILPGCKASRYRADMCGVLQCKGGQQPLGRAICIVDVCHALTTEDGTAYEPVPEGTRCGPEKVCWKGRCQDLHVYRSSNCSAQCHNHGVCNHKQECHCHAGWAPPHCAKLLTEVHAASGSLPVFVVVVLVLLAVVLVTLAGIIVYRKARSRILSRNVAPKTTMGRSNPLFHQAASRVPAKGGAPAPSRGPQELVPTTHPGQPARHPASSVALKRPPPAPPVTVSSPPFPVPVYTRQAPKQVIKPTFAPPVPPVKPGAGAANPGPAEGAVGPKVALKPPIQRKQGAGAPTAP
Protocol: (§1) A variety of experimental parameters were optimized for high-throughput flow cytometry including blocking buffer, and primary and secondary antibody concentrations, to identify the optimal conditions for screening. Through these studies ADP2 and ADP13 were determined to be high affinity binding antibodies.
(§2) Thus, for these studies antigen-binding fragments (Fabs) of ADP2 and ADP13, which bind with lower affinity than the full antibody, were generated. In addition, higher binding stringency conditions were tested, such as increased pH, salinity, and temperature, and/or increased washing, to weaken binding sufficiently to allow identification of critical binding residues in flow cytometry. The final experimental flow cytometry conditions were: primary antibody incubation with ADP2 Fab (0.50 μg/ml), ADP13 Fab (5.00 μg/ml) and Control Ab (0.16 μg/ml) for 60 minutes in flow cytometry buffer containing 10% goat serum in PBS (Ca²⁺ and Mg²⁺ free). […] Samples were washed three times after primary antibody incubation and twice after secondary antibody incubation with PBS (Ca²⁺ and Mg′ free). Next, HEK293 cells expressing WT or mutated ADAM8 proteins or EV DNA were incubated with ADP2 or ADP13 Fabs or Control Ab at their optimal concentrations. Fab binding was detected using Alexa Fluor 488-conjugated secondary antibodies and mean cellular fluorescence determined using the Intellicyt iQue flow cytometry platform. […] This counter-screen strategy facilitates the exclusion of mutants that are locally misfolded or that have an expression defect. Binding of each test Fab to each mutant clone in the alanine scanning library was determined, in duplicate, by high-throughput flow cytometry.

K458A = biological target: T2, K458A (Homo sapiens, UniProt P78325); assay: as above
T2 construct: expressed on HEK293 cells; also called human ADAM8 point mutant K458A
T2 sequence (ADAM8, looked up): T1 sequence (ADAM8, looked up) with A428E, K442A
Protocol: as §1, §2

Binding Reactivity (% WT) (E444A): 17.6 % WT
B1: ADP2 Fab (Fab, V domains shown)
VH: EVKLVESGGGLVQPGGSLSLSCAASGFSFPDYYMSWVRQPPGKALEWLGFIRDSANGYTTEYIASVKGRFTFSRDNSQSILYLQMNALRAEDSATYYCARYSRYYGMDYWGQGTSVTVSS
VL: SIVMTQTPKILLVSAGDRVTITCKASQTVNYDVAWYQQKPGQSPKPVIYFASNRYTGVPDRFTGSGFGTDFTFTISTVQAEDLAVYFCQQDYSAPWTFGGGTKLEIK

Binding Reactivity (% WT) (K458A): 13.5 % WT
B2: ADP13 Fab (Fab, V domains shown)
VH: EVQLQQSGPEMVKPGTSVKISCKASGYTFTDYYINWVKQSHGKSLEWIGDISPNIGGATYNPKFKGKAILTVDKSARTAYMELRSLTSEDSAVYCCTRGGSSYPYFYAMDYWGQGTSVTVSS
VL: DIVMSQSPSSLAVSVGEKVTMSCKSSQSLLYSSNQKKYLAWYQQKPGQSPKLLIYWASTRESGVPDRFTGSGSGTDFTLTISSVKAEDLAVYYCQQFYSYPYTFGGGTKLEINR
